Earlier results in publication PMC9960319.

Target: intermediate-affinity IL-2 receptor (Homo sapiens) (UniProt P14784)
UniProt P14784, sequence (P14784 27-240, chain 1 of 2): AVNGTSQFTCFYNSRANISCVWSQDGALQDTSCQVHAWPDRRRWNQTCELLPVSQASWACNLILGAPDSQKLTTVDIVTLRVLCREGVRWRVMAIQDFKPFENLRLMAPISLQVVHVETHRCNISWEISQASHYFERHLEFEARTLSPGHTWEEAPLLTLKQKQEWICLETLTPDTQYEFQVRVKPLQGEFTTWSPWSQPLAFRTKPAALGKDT
UniProt P14784, sequence (P31785 23-262, chain 2 of 2, further chain): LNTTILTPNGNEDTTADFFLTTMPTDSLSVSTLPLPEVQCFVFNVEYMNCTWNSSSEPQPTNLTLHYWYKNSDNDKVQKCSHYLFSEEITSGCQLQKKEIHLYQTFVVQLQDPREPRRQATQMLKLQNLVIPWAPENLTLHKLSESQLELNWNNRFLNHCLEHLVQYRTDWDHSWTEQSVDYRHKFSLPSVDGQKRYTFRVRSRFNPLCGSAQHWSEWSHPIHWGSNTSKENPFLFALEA

- Kd: 40 nM
Substance: IL-2 moiety (from UniProt P60568)
